Consider one substance from patent US20200115702A1.

The experiment has as its target BAFF-Fc (Sino Biological) (human) (UniProt Q9Y275). As to the kind of experiment: cell-based or functional assay.
Chain of UniProt Q9Y275 (Q9Y275 134-285): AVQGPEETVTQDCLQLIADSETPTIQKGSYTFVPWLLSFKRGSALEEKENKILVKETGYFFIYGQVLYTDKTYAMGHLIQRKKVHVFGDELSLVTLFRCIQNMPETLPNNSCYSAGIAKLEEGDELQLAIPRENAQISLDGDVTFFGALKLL

Take “endogenous BAFF receptor, BR3 (from UniProt Q96RJ3 1-78)”: the IC50, inhibition of BAFF bioactivity in the mouse splenocyte assay came to 121 nM.
